From patent publication US7893032B2, “NgR variants and compositions thereof for suppressing axonal growth inhibition” (Yale University, priority 2005, dated 2011)
Substitutions are numbered along the chain they refer to. Numbers in names are those of the source.

B1: wild-type NgR: Wild-type full-length human NgR protein (protein, listed as Homo sapiens)
chain: MKRASAGGSRLLAWVLWLQAWQVAAPCPGACVCYNEPKVTTSCPQQGLQAVPVGIPAASQRIFLHGNRISHVPAASFRACRNLTILWLHSNVLARIDAAAFTGLALLEQLDLSDNAQLRSVDPATFHGLGRLHTLHLDRCGLQELGPGLFRGLAALQYLYLQDNALQALPDDTFRDLGNLTHLFLHGNRISSVPERAFRGLHSLDRLLLHQNRVAHVHPHAFRDLGRLMTLYLFANNLSALPTEALAPLRALQYLRLNDNPWVCDCRARPLWAWLQKFRGSSSEVPCSLPQRLAGRDLKRLAANDLQGCAVATGPYHPIWTGRATDEEPLGLPKCCQPDAADKASVLEPGRPASAGNALKGRVPPGDSPPGNGSGPRHINDSPFGTLPGSAEPPLTAVRPEGSEPPGFPTSGPRRRPGCSRKNRTRSHCRLGQAGSGGGGTGDSEGSGALPSLTCSLTPLGLALVLWTVLGPC
B2: NgR-R377Q: Full length human NgR R377Q mutant protein (protein)
chain: B1 chain with R377Q
modifications: Human NgR R377Q mutant
notes: Full length human NgR R377Q mutant protein

Legend:
[1] = system: E7 chick DRG growth cones; experiment: Nogo-induced growth cone collapse in E7 chick DRG neurons expressing NgR proteins; format: cell-based; details: for growth cone collapse in the presence of Nogo: E7 DRG cells expressing the protein from a viral vector, 100 μM Nogo-66 (FIG. 2 legend)
Procedure: (§1) FIG. 2 quantifies collapsed E7 (A) or E13 (B) chick DRG growth cones expressing the indicated proteins and exposed (dark) or not exposed (light) to 100 μM Nogo-66.
The signaling ability of the NgR mutant proteins was directly assessed by expressing the proteins in chick DRG neurons and monitoring Nogo-induced growth cone collapse. […] (FIG. 2A).

[2] = system: E13 chick DRG growth cones; experiment: Nogo-induced growth cone collapse in E13 chick DRG neurons overexpressing NgR proteins; format: cell-based; details: E13 DRG cells with endogenous NgR; 100 μM Nogo-66 (FIG. 2 legend)
Procedure: as §1
At E13, DRG neurons express NgR and respond to Nogo with growth cone collapse that is not altered by overexpression of wild-type NgR. (FIG. 2B). […] (FIG. 2B). Thus, NgR-R377Q is a dominant negative protein.

| Molecule | growth cone collapse in the presence of Nogo [1] | effect of overexpression on extent of Nogo-induced growth cone collapse [2] | signaling ability (signal transduction) ([1]; E7 DRG cells expressing the protein, Nogo-induced growth cone collapse as readout) |
| --- | --- | --- | --- |
| B1 | exhibited growth cone collapse in the presence of Nogo | not altered | – |
| B2 | did not | significantly decreased | inactive in signal transduction |
